Data as given in patent US20240100133A1, “ENZYMATICALLY INACTIVE GRANZYME A AND USES THEREFORE” (Saint Louis University, priority 2022, published 2024).
Substitutions are numbered along the chain they refer to. In names and notes the source's numbering stands. Like-named read-outs stand apart in the source and are kept apart here.

How the values were obtained:
[1] = system: mycobacteria BCG-GFP; format: binding
[2] = system: LAMP1 (phagolysosome fusion); assay: Confocal microscopy colocalization of BCG-GFP and LAMP1; format: cell-based, human; conditions: compared with untreated controls
Method: Confocal microscopy and Stimulation Emission Depletion (STED) experiments. For confocal and STED microscopy experiments, cells were incubated on coverslips pre-treated with Cell-Tak (Corning #354240). At the time of fixation, cells were washed twice with 1×RT PBS, and then fixed in 4% paraformaldehyde for 15 min at 37° C. Slides were washed thrice for 5 min at RT with 1×PBS, and then blocked with 5% donkey serum (Cat. #017-000-121, Jackson ImmunoResearch, West Grove, PA) with 0.25% Tween-20 (Cat. #P9416, Sigma, St. Louis, MO) and True Stain Fc blocker (added only during blocking step) (Cat. #426101, Biolegend, San Diego, CA). Cells were then incubated overnight at 4° C. with primary antibody anti-GzmA (Cat. #MAB29051, R&D, Minneapolis, MN) at 12.5 μg/mL in blocking buffer, anti-PDIA1 (Cat. #MAB4236, R&D, Minneapolis, MN) at 12.5 μg/mL in blocking buffer, anti-LAMP1 at 12.5 ug/ml (Cat. #MAB4800, R&D, Minneapolis, MN), or anti-ATPSH (Cat. #ab110275, Abcam, Cambridge, UK) at 5 μg/mL in blocking buffer. To remove unbound antibody, cells were washed four times with 1×PBS at RT, and then incubated in the dark for 2 h with secondary antibody conjugated with Alexa Fluor 594 (Cat. #715-545-150, Jackson Immunoresearch, West Grove, PA) at 1:100 or Atto 647N (Cat. #ASR3248, Abcepta, San Diego, Ca) at 1:100. […]

[3] = BLT esterase assay for GzmA enzyme activity; format: biochemical; conditions: 120 pM protein; substrate BLT
Method: BLT esterase protocol for measuring GzmA enzyme activity. BLT esterase assays and calculation of specific activity were adapted from (Rasi et al., 2021; Rasi et al., 2022). Substrate Z-L-Lys-SBz1 hydrochloride (Sigma #C3647-25MG) was added to 96 well plates with a serial dilution between 19.5-2,500 μM. Assay buffer consisted of 50 mM Tris, 154 mM NaCl, pH 7.5 in presence of […] (5,5-dithio-bis-(2-nitrobenzoic acid) (DTNB) chromophore. 120 pM of protein was added to each well and substrate hydrolysis was quantified by measuring the absorbance at 405 nm.

[4] = system: Connaught BCG within primary CD14+ human monocytes; format: cell-based; conditions: for inhibition of intracellular mycobacterial replication (MGIA): 72 h
[5] = system: Mtb H37Rv within primary CD14+ human monocytes; format: cell-based, Mycobacterium tuberculosis; conditions: 200 nM GzmA, Mtb MOI 1, human monocytes
[6] = target: T1, CD14 (Homo sapiens, UniProt P08571); assay: Immunoprecipitation with anti-GzmA, probed for CD14; conditions: human monocyte lysates, infected and uninfected cells
T1 sequence (P08571 20-345): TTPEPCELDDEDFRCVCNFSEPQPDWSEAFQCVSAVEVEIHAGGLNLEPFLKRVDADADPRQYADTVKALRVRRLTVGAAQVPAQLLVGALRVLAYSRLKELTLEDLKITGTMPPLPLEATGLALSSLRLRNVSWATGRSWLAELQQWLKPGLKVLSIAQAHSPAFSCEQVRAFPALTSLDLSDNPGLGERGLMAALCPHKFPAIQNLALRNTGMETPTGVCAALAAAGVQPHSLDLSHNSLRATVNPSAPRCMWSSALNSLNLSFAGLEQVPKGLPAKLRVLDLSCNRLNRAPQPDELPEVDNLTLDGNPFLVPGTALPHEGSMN

[7] = system: mycobacteria within iMac-WT mouse cells; format: cell-based; conditions: human GzmA on mouse iMac-WT cells
[8] = target: TLR4 (Homo sapiens, UniProt O00206); assay: Immunoprecipitation with anti-GzmA, probed for TLR4; conditions: human monocyte lysates, infected and uninfected cells
Sequence of TLR4 (O00206 24-839): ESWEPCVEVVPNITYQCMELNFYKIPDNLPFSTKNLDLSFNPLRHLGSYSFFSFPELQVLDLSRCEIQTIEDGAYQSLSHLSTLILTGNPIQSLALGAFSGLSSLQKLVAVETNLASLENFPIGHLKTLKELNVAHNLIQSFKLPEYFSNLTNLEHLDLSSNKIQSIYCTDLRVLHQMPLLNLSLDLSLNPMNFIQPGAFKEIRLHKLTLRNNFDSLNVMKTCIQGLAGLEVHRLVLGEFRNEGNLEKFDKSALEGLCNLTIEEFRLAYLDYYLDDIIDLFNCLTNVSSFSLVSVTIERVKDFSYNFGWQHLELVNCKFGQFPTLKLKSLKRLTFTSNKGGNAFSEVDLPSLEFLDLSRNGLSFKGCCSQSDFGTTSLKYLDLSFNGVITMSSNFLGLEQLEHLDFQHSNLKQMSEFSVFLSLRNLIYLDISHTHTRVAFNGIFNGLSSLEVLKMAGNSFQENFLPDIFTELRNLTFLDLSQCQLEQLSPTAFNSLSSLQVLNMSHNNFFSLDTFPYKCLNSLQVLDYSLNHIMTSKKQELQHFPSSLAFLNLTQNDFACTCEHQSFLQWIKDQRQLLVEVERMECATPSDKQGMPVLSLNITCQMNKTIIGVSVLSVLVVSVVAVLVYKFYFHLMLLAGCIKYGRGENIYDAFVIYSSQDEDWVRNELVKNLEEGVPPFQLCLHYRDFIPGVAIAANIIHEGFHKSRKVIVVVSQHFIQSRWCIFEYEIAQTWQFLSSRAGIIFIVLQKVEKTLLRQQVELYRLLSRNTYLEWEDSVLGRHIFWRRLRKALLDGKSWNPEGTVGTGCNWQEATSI

B1: GzmA-C93S: Granzyme A variant with cysteine 93 substituted with serine; forms only monomers, retains enzymatic activity (protein)
chain: IIGGNEVTPHSRPYMVLLSLDRKTICAGALIAKDWVLTAAHCNLNKRSQVILGAHSITREEPTKQIMLVKKEFPYPSYDPATREGDLKLLQLMEKAKINKYVTILHLPKKGDDVKPGTMCQVAGWGRTHNSASWSDTLREVNITIIDRKVCNDRNHYNFNPVIGMNMVCAGSLRGGRDSCNGDSGSPLLCEGVFRGVTSFGLENKCGDPRGPGVYILLSKKHLNWIIMTIKGAV
modifications: left off: small tags and cut ends
- binding to mycobacteria [1]: able to bind mycobacteria
- colocalization between LAMP1 and BCG-GFP [2]: fails to direct mycobacteria into the phagolysosome
- enzymatic (esterase) activity, cleavage of BLT [3]: cleaved similar amounts of BLT as GzmA-WT
- effect of monomeric GzmA on protective effects of GzmA-WT (mixing experiment) [4]: partially inhibit the protective effects of GzmA-WT
- intracellular replication of pre-opsonized mycobacteria (excess protein removed) [4]: cannot
- inhibition of intracellular mycobacterial replication (MGIA) [4]: loses its inhibitory activity
- inhibition of intracellular Mtb (MGIA) [5]: did not
- binding to CD14 (immunoprecipitation) [6]: does not
- inhibition of mycobacterial growth in iMac-WT cells [7]: did not
- binding to TLR4 (immunoprecipitation) [8]: does not

B2: GzmA-S195A (protein)
chain: B1 chain with S77C, S184A
modifications: left off: small tags and cut ends
- binding to mycobacteria [1]: bound mycobacteria
- enzymatic (esterase) activity, cleavage of BLT [3]: loses its enzymatic activity
- GzmA inhibitory activity after CD14 neutralization (MGIA) [4]: lost their inhibitory activity
- GzmA inhibitory activity after TLR2 neutralization (MGIA) [4]: does not reverse
- inhibition of intracellular mycobacterial replication (MGIA) [4]: inhibits the intracellular replication of mycobacteria
- inhibition of intracellular Mtb (MGIA) [5]: inhibited Mtb
- inhibition of intracellular Mtb (MGIA) ([5]; listed as recombinant enzymatically inactive GzmA): very potent at protecting against Mtb intracellular infection
- inhibition of mycobacterial growth in iMac-WT cells [7]: modestly inhibit mycobacterial growth
